Assay results reported in US20030229922A1, “Materials and methods for the modification of plant cell wall polysaccharides” (GENESIS RESEARCH AND DEVELOPMENT CORPORATION LTD., priority 1998, published 2003).

Key:
[1] = test system: T1, OC[C@H]1O[C@@](CO)(O[C@H]2O[C@H](CO)[C@@H](O)[C@H](O)[C@H]2O)[C@@H](O)[C@@H]1O; test: SUS (sucrose synthase) enzyme assay (purified recombinant protein); type: biochemical, Eucalyptus grandis; conditions: other: E. grandis SUS; SEM 0.371
T1 construct: wild type
Description: (§1) Sense constructs containing sequences including the coding regions for UGP (SEQ ID NO: 79) and SUS (SEQ ID NO: 105) from Eucalyptus grandis, and UGP (SEQ ID NO: 80) from Pinus radiata were inserted into the expression vector pET16b (Clontech Laboratories Inc, Palo Alto, Calif.). The resulting constructs were transformed into E. coli XL1-Blue (Stratagene) and induced to produce recombinant protein by the addition of IPTG. Purified proteins were obtained using Ni^2+ column chromatography (Janknecht et al., Proc. Natl. Acad. Sci. USA, 88:8972-8976, 1991).
(§2) Enzyme assays for SUS (sucrose synthase) were performed using the methods described by Sebkova et al. Plant Physiol., 108:75-83, 1995. […] The KM^Sucrose of E. grandis is compared with the data reported by Delmer, J. Biol. Chem. 247:3822-3828, 1972 and Nakai et al., Biosci. Biotech. Biochem. 61:1500-1503, 1997.

[2] = test system: T2, O=c1ccn([C@@H]2O[C@H](COP(=O)(O)OP(=O)(O)O)[C@@H](O)[C@H]2O)c(=O)[nH]1; test: as above; type: biochemical, Eucalyptus grandis; conditions: other: E. grandis SUS; SEM 0.003
T2 construct: wild type
Description: as §1, §2

Eucalyptus grandis SUS (sucrose synthase), SEQ ID NO: 105 (DNA; protein SEQ ID NO: 106) (Eucalyptus grandis), sequence (chain, as listed by the source): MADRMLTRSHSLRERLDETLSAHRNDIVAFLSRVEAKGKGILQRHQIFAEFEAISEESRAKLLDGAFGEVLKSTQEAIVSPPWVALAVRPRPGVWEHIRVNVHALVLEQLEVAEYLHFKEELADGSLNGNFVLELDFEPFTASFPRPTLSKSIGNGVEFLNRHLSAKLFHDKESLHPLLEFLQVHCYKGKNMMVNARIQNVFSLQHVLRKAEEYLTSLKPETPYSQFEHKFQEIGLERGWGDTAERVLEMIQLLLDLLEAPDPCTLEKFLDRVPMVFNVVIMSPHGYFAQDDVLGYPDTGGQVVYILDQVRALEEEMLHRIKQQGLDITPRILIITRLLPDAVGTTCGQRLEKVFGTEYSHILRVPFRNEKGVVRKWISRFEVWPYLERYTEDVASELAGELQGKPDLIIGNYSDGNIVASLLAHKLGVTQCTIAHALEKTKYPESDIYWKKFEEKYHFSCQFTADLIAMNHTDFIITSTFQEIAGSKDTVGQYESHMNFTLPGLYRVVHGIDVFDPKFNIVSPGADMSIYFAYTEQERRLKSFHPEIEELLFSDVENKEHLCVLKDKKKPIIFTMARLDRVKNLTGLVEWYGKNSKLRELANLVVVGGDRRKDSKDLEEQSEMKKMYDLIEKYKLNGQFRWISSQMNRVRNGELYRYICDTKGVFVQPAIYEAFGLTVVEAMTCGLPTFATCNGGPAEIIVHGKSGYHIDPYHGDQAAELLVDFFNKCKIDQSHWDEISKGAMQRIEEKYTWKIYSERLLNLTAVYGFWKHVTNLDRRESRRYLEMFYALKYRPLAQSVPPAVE

With “Eucalyptus grandis SUS (sucrose synthase), SEQ ID NO: 105 (DNA; protein SEQ ID NO: 106) (Eucalyptus grandis)” the Km [1] was 1650 µM and the Km [2] was 28 µM.
